Numbered stars: 1 amine (or outer) side, 2 acyl side, 3 side chain; on linkers, the order of the positions; unused ones are H or OH. Ends that are not written are not given here. * marks the point of attachment. C20 diacid = O=C(O)CCCCCCCCCCCCCCCCCCC(=O)*; C18 diacid = O=C(O)CCCCCCCCCCCCCCCCC(=O)*; C16 diacid = O=C(O)CCCCCCCCCCCCCCC(=O)*; γGlu = O=C(O)[C@H](CCC(=O)[*:2])N[*:1]; C14 diacid = O=C(O)CCCCCCCCCCCCC(=O)*; AEEA = NCCOCCOCC(=O)O

Assay [1] concerns the target T1, human amylin receptor (human calcitonin receptor + human RAMP3) (human) (UniProt P30988).
T1 sequence (looked up) 1: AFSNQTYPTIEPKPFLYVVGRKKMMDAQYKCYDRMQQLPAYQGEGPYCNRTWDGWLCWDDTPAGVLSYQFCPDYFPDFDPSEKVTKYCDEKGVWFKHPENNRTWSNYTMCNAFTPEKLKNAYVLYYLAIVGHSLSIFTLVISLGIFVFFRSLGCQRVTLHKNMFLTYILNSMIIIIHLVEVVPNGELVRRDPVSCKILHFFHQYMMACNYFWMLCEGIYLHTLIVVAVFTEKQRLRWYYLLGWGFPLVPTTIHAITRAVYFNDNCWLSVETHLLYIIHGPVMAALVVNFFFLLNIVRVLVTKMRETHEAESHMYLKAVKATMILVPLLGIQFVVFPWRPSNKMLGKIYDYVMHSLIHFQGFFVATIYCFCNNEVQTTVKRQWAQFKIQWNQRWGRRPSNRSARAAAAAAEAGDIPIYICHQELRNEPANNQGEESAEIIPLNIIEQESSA
T1 sequence (looked up) 2: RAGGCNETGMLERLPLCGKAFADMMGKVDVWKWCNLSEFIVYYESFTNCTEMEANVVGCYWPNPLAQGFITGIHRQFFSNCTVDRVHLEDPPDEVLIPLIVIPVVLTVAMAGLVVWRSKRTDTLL
Nature of the assay: whole-cell competition vs 125I-rat amylin (Assay Va).

Assay [2] deals with T2, human calcitonin receptor on BHK570/CRE-luc cells (human, UniProt P30988 25-474).
T2 sequence (looked up): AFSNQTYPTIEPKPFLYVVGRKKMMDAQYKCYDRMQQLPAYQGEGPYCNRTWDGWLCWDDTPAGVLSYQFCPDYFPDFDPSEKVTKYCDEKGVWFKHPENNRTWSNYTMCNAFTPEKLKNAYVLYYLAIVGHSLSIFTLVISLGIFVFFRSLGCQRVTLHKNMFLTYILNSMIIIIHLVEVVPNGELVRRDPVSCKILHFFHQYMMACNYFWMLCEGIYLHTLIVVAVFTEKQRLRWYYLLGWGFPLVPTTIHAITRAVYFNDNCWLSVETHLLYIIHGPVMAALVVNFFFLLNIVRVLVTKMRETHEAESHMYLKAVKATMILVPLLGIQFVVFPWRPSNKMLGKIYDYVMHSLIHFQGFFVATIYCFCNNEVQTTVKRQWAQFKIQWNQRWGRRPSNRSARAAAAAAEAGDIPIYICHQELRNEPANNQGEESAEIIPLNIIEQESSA
Nature of the assay: cell-based or functional assay.

Assay [3] concerns the target T3, human amylin 3(a) receptor (human calcitonin receptor co-expressed with RAMP-3) on BHK570/CRE-luc cells (human, UniProt P30988 25-474; O60896 24-148).
T3 sequence (looked up) 1: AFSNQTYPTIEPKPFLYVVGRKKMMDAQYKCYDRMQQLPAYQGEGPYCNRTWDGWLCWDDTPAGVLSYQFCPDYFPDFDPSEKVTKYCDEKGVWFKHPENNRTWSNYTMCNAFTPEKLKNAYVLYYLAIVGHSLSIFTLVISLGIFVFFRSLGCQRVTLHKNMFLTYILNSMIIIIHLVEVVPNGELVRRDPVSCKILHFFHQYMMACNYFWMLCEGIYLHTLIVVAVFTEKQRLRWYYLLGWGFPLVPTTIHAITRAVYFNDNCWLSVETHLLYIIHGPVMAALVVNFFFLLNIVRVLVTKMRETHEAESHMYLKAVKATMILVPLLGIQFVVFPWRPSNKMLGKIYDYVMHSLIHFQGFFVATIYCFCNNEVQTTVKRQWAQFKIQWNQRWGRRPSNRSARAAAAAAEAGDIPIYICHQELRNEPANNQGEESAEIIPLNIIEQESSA
T3 sequence (looked up) 2: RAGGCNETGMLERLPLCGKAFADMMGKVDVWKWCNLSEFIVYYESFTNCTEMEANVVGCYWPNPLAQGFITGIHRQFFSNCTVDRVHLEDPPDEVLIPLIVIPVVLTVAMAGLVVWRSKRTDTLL
Nature of the assay: cell-based or functional assay.

B1: [N-terminal(C16 diacid)]mimylin (peptide)
peptide: {C16 diacid}-EASELSTAALGRLSAELHELATLPRTETGPESP-NH2
In the case of B1, the IC50 in assay [1] is 0.498 nM.

B2: [N-terminal(C14 diacid)]mimylin (peptide)
peptide: {C14 diacid}-EASELSTAALGRLSAELHELATLPRTETGPESP-NH2
With B2, the IC50 in assay [1] was 1.19 nM.

B3: [N-terminal(C20 diacid-gGlu), des1, 4G, 9V, 15Q, 21Q, 23aQ, 23bT, 23cY, 30S, 31Q, 32T, 33Y]mimylin (peptide)
peptide: {C20 diacid-γGlu}-ASGLSTAVLGRLSQELHELQTLQTYPRTETGSQTY-NH2
SMILES: CC(C)C[C@H](NC(=O)CNC(=O)[C@H](CO)NC(=O)[C@H](C)NC(=O)CC[C@H](NC(=O)CCCCCCCCCCCCCCCCCCC(=O)O)C(=O)O)C(=O)N[C@@H](CO)C(=O)N[C@H](C(=O)N[C@@H](C)C(=O)N[C@H](C(=O)N[C@@H](CC(C)C)C(=O)NCC(=O)N[C@@H](CCCNC(=N)N)C(=O)N[C@@H](CC(C)C)C(=O)N[C@@H](CO)C(=O)N[C@@H](CCC(N)=O)C(=O)N[C@@H](CCC(=O)O)C(=O)N[C@@H](CC(C)C)C(=O)N[C@@H](Cc1c[nH]cn1)C(=O)N[C@@H](CCC(=O)O)C(=O)N[C@@H](CC(C)C)C(=O)N[C@@H](CCC(N)=O)C(=O)N[C@H](C(=O)N[C@@H](CC(C)C)C(=O)N[C@@H](CCC(N)=O)C(=O)N[C@H](C(=O)N[C@@H](Cc1ccc(O)cc1)C(=O)N1CCC[C@H]1C(=O)N[C@@H](CCCNC(=N)N)C(=O)N[C@H](C(=O)N[C@@H](CCC(=O)O)C(=O)N[C@H](C(=O)NCC(=O)N[C@@H](CO)C(=O)N[C@@H](CCC(N)=O)C(=O)N[C@H](C(=O)N[C@@H](Cc1ccc(O)cc1)C(N)=O)[C@@H](C)O)[C@@H](C)O)[C@@H](C)O)[C@@H](C)O)[C@@H](C)O)C(C)C)[C@@H](C)O
For B3, the “hCTR funct. EC50 (pM), tested with HSA” value in assay [2] came to 99 pM. The “hAmylin-R funct. EC50 (pM), tested with HSA” value (“hAmylin-R funct. EC50 (pM)” for short) in assay [3] came to 185 pM.

B4: [N-terminal(C20 diacid-gGlu), des1, 4Q, 9V, 15Q, 16R, 19R, 21Q, 23Y, 27Q, 30S, 31Q, 32T, 33Y]mimylin (peptide)
peptide: {C20 diacid-γGlu}-ASQLSTAVLGRLSQRLHRLQTYPRTQTGSQTY-NH2
SMILES: CC(C)C[C@H](NC(=O)[C@H](CCCNC(=N)N)NC(=O)CNC(=O)[C@H](CC(C)C)NC(=O)[C@@H](NC(=O)[C@H](C)NC(=O)[C@@H](NC(=O)[C@H](CO)NC(=O)[C@H](CC(C)C)NC(=O)[C@H](CCC(N)=O)NC(=O)[C@H](CO)NC(=O)[C@H](C)NC(=O)CC[C@H](NC(=O)CCCCCCCCCCCCCCCCCCC(=O)O)C(=O)O)[C@@H](C)O)C(C)C)C(=O)N[C@@H](CO)C(=O)N[C@@H](CCC(N)=O)C(=O)N[C@@H](CCCNC(=N)N)C(=O)N[C@@H](CC(C)C)C(=O)N[C@@H](Cc1c[nH]cn1)C(=O)N[C@@H](CCCNC(=N)N)C(=O)N[C@@H](CC(C)C)C(=O)N[C@@H](CCC(N)=O)C(=O)N[C@H](C(=O)N[C@@H](Cc1ccc(O)cc1)C(=O)N1CCC[C@H]1C(=O)N[C@@H](CCCNC(=N)N)C(=O)N[C@H](C(=O)N[C@@H](CCC(N)=O)C(=O)N[C@H](C(=O)NCC(=O)N[C@@H](CO)C(=O)N[C@@H](CCC(N)=O)C(=O)N[C@H](C(=O)N[C@@H](Cc1ccc(O)cc1)C(N)=O)[C@@H](C)O)[C@@H](C)O)[C@@H](C)O)[C@@H](C)O
Regarding B4, in assay [2], the “hCTR funct. EC50 (pM), tested with HSA” value is 50 pM. Further, the “hAmylin-R funct. EC50 (pM)” value in assay [3] worked out at 37 pM.

B5: [N-terminal(C14 diacid-2xgGlu-4xOEG)]mimylin (peptide)
peptide: {C14 diacid-γGlu-γGlu-AEEA-AEEA-AEEA-AEEA}-EASELSTAALGRLSAELHELATLPRTETGPESP-NH2
In the case of B5, the half-maximal inhibitory concentration (IC50) in assay [1] stood at 8.38 nM.

B6: [N-terminal(C20 diacid-gGlu), des1, 4G, 9V, 12K, 15Q, 21Q, 23Y, 25P, 30S, 31G, 32T, 33Y]mimylin (peptide)
peptide: {C20 diacid-γGlu}-ASGLSTAVLGKLSQELHELQTYPPTETGSGTY-NH2
SMILES: CC(C)C[C@H](NC(=O)CNC(=O)[C@H](CO)NC(=O)[C@H](C)NC(=O)CC[C@H](NC(=O)CCCCCCCCCCCCCCCCCCC(=O)O)C(=O)O)C(=O)N[C@@H](CO)C(=O)N[C@H](C(=O)N[C@@H](C)C(=O)N[C@H](C(=O)N[C@@H](CC(C)C)C(=O)NCC(=O)N[C@@H](CCCCN)C(=O)N[C@@H](CC(C)C)C(=O)N[C@@H](CO)C(=O)N[C@@H](CCC(N)=O)C(=O)N[C@@H](CCC(=O)O)C(=O)N[C@@H](CC(C)C)C(=O)N[C@@H](Cc1c[nH]cn1)C(=O)N[C@@H](CCC(=O)O)C(=O)N[C@@H](CC(C)C)C(=O)N[C@@H](CCC(N)=O)C(=O)N[C@H](C(=O)N[C@@H](Cc1ccc(O)cc1)C(=O)N1CCC[C@H]1C(=O)N1CCC[C@H]1C(=O)N[C@H](C(=O)N[C@@H](CCC(=O)O)C(=O)N[C@H](C(=O)NCC(=O)N[C@@H](CO)C(=O)NCC(=O)N[C@H](C(=O)N[C@@H](Cc1ccc(O)cc1)C(N)=O)[C@@H](C)O)[C@@H](C)O)[C@@H](C)O)[C@@H](C)O)C(C)C)[C@@H](C)O
B6: in assay [2], the “hCTR funct. EC50 (pM), tested with HSA” value worked out at 62 pM. Also, the “hAmylin-R funct. EC50 (pM)” value in assay [3] stood at 154 pM.

B7: mimylin (peptide)
peptide: EASELSTAALGRLSAELHELATLPRTETGPESP-NH2
For the molecule B7, the half-inhibitory concentration (IC50) in assay [1] worked out at 0.511 nM.

B8: [N-terminal(C18 diacid)]mimylin (peptide)
peptide: {C18 diacid}-EASELSTAALGRLSAELHELATLPRTETGPESP-NH2
SMILES: CC(C)C[C@H](NC(=O)[C@H](C)NC(=O)[C@H](C)NC(=O)[C@@H](NC(=O)[C@H](CO)NC(=O)[C@H](CC(C)C)NC(=O)[C@H](CCC(=O)O)NC(=O)[C@H](CO)NC(=O)[C@H](C)NC(=O)[C@H](CCC(=O)O)NC(=O)CCCCCCCCCCCCCCCCC(=O)O)[C@@H](C)O)C(=O)NCC(=O)N[C@@H](CCCNC(=N)N)C(=O)N[C@@H](CC(C)C)C(=O)N[C@@H](CO)C(=O)N[C@@H](C)C(=O)N[C@@H](CCC(=O)O)C(=O)N[C@@H](CC(C)C)C(=O)N[C@@H](Cc1c[nH]cn1)C(=O)N[C@@H](CCC(=O)O)C(=O)N[C@@H](CC(C)C)C(=O)N[C@@H](C)C(=O)N[C@H](C(=O)N[C@@H](CC(C)C)C(=O)N1CCC[C@H]1C(=O)N[C@@H](CCCNC(=N)N)C(=O)N[C@H](C(=O)N[C@@H](CCC(=O)O)C(=O)N[C@H](C(=O)NCC(=O)N1CCC[C@H]1C(=O)N[C@@H](CCC(=O)O)C(=O)N[C@@H](CO)C(=O)N1CCC[C@H]1C(N)=O)[C@@H](C)O)[C@@H](C)O)[C@@H](C)O
B8: the IC50 in assay [1] came out at 0.902 nM.

B9: [N-terminal(C20 diacid-gGlu), des1, 2L, 4Q, 8L, 9V, 15Q, 16R, 19R, 21Q, 23Y, 27Q, 30S, 31Q, 32T, 33Y]mimylin (peptide)
peptide: {C20 diacid-γGlu}-LSQLSTLVLGRLSQRLHRLQTYPRTQTGSQTY-NH2
SMILES: CC(C)C[C@H](NC(=O)CC[C@H](NC(=O)CCCCCCCCCCCCCCCCCCC(=O)O)C(=O)O)C(=O)N[C@@H](CO)C(=O)N[C@@H](CCC(N)=O)C(=O)N[C@@H](CC(C)C)C(=O)N[C@@H](CO)C(=O)N[C@H](C(=O)N[C@@H](CC(C)C)C(=O)N[C@H](C(=O)N[C@@H](CC(C)C)C(=O)NCC(=O)N[C@@H](CCCNC(=N)N)C(=O)N[C@@H](CC(C)C)C(=O)N[C@@H](CO)C(=O)N[C@@H](CCC(N)=O)C(=O)N[C@@H](CCCNC(=N)N)C(=O)N[C@@H](CC(C)C)C(=O)N[C@@H](Cc1c[nH]cn1)C(=O)N[C@@H](CCCNC(=N)N)C(=O)N[C@@H](CC(C)C)C(=O)N[C@@H](CCC(N)=O)C(=O)N[C@H](C(=O)N[C@@H](Cc1ccc(O)cc1)C(=O)N1CCC[C@H]1C(=O)N[C@@H](CCCNC(=N)N)C(=O)N[C@H](C(=O)N[C@@H](CCC(N)=O)C(=O)N[C@H](C(=O)NCC(=O)N[C@@H](CO)C(=O)N[C@@H](CCC(N)=O)C(=O)N[C@H](C(=O)N[C@@H](Cc1ccc(O)cc1)C(N)=O)[C@@H](C)O)[C@@H](C)O)[C@@H](C)O)[C@@H](C)O)C(C)C)[C@@H](C)O
As for B9, the “hCTR funct. EC50 (pM), tested with HSA” value in assay [2] came to 50 pM. For the same molecule, the “hAmylin-R funct. EC50 (pM)” value in assay [3] amounted to 44 pM.

(Values after patent US20160272683A1 (Novo Nordisk, published 2016).)
